First the molecules themselves.
B1: TPR t1 (parent)
chain: GACCAAUCUGCCCUCAGAGCUCGAGAACAUCUUCGGAUGCAGAGGAGGCAGGCUUCGGUGGCGCGAUAGCGCCAACGUCCUCAACCUCCAAUGCAUCCCACCACAUGAUGAUGCCUGAAGAGCCUUGGUUUUUUG

Here are results for 167 variants from the RNAGym collection of RNA variant scans (doi:10.1073/pnas.2313332121).

The variants in this data set derive from B1. As to the kind of experiment: polymerase ribozyme fitness, log enrichment relative to wild type (log ratio); higher = more active; in vitro selection for triplet polymerase activity. A digest of the protocol: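 For each subunit of a heterodimeric triplet polymerase ribozyme, a mutant library was built by PCR and transcribed, then taken through a single in vitro selection round in triplicate. Selection involved annealing to a biotinylated primer, the partner subunit and triplets, incubation frozen at −7 °C, gel excision of extended constructs, capture on streptavidin beads and RT-PCR. Genotypes were retained after Illumina sequencing of inputs and outputs only with ≥10 input reads and ≥1 read in each output. Fitness is defined as the logarithm of a genotype's enrichment relative to wild-type enrichment, using inverse-variance-weighted averages across replicates, with the logarithm taken to base 2.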
As to C12G C56A, the “polymerase ribozyme fitness (log ratio)” value was found to be 0.208.
Then C12A C85G, with -2.79; and G42A C56U C80U, with -3.08.
Consider C11G U32G U125A U126G, for which the “polymerase ribozyme fitness (log ratio)” value was -6.54.
For A66U A68G, the “polymerase ribozyme fitness (log ratio)” value is -3.88.
As for A41C G48U A111C, the “polymerase ribozyme fitness (log ratio)” value was -3.12.
In the case of A27G C49G it was -2.37; in that of G25U C31G G42A A46U C70U G110U G128U, -6.32.
As to A50C C64U G77A, the “polymerase ribozyme fitness (log ratio)” value is -0.681.
In the case of C8U G51A C64U C104G G120C it was -6.76; in that of C8A G120U, 0.91.
Turning to C13U G39U C73A A83U A121U, the “polymerase ribozyme fitness (log ratio)” value amounted to 1.24.
Consider C13U C34G G47U C72G U112A, for which the “polymerase ribozyme fitness (log ratio)” value was -5.6.
With G10U A100U, the “polymerase ribozyme fitness (log ratio)” value was -1.18.
In the case of A37U C99U it was -2.37.
G110A C124G G128C: the “polymerase ribozyme fitness (log ratio)” value was -3.19.
In the case of C12U G51U C73A U92A G113U U116G it was -7.04; in that of A24U C124G, -5.19.
Then A43U C62U G77A U126A, with -5.02.
Then G10A C88A A90G G122U U133G, with 0.185; and C85U U130A, with -1.86.
On to G71U G113C, for which the “polymerase ribozyme fitness (log ratio)” value was -1.47.
A2G A29G G71A A90C: the “polymerase ribozyme fitness (log ratio)” value is -3.65.
As to C3U C11G C12A A50U C56G A83U G93C G113U, the “polymerase ribozyme fitness (log ratio)” value was -5.9.
Then G44C C62A G77A U133A, with -4.24; and A83G, with -0.489; and C13A C15U G44A C49U C73U C89A, with -4.76.
Then U7G A46U, with -1.38; and A50G C62A C99U, with -6.11.
Regarding A41G G52C G58U C62A U78C A111C G127A, the “polymerase ribozyme fitness (log ratio)” value is -4.32.
For the variant G60A C82U, the “polymerase ribozyme fitness (log ratio)” value was -0.523.
In the case of C15A C85G it was -3.35.
Take C20A C49U G61U C85A: the “polymerase ribozyme fitness (log ratio)” value is -3.53.
A50C C53U G57A U96A G117A U132A: the “polymerase ribozyme fitness (log ratio)” value is -5.61.
Turning to A90C C104A, the “polymerase ribozyme fitness (log ratio)” value is -3.78.
Then G19C G36A G48A C82U C124A, with -3.64; and G42U C73A U106C, with -1.97.
For the variant A37G C94G, the “polymerase ribozyme fitness (log ratio)” value was -2.1.
In the case of C11G U32A C34U C115G it was -8.31; in that of C13A C40A G93A A118U U129C, -3.28; in that of A24C G51U G61C C79A C102A G110U, -6.53.
In the case of U9G G77A U78C C98A G113C it was -5.07; in that of A6U C15U A26G C86U A100U G120A C123A U125G, -5.49.
On to G58U C98U U125A, for which the “polymerase ribozyme fitness (log ratio)” value was -1.35.
In the case of C53U G60U it was 0.63; in that of A111C U126C, 0.272; in that of A29U G93A, -2.13.
Then A46U C89U, with -2.66; and A26U U78C, with -2.92.
In the case of U21C A29U A84C U112A A119G G120C it was -0.885; in that of G61A U112G G120U G122C, -1.64.
As for A90G A119U, the “polymerase ribozyme fitness (log ratio)” value came out at 0.257.
Then A18U C89A U133A, with -2.21; and G52C G69U C97A, with -2.26; and A6C U9A C15G G45A C62U C104A C124G, with -3.99.
Then A27U G60C C82G G120C G128U, with -4.87; and C62A G110C G127U, with -5.37; and A6U G25A C56A C73A C79G C94U G113U C124A, with -8.13.
With G63C U116A C123U, the “polymerase ribozyme fitness (log ratio)” value was -1.91.
In the case of G60U C82U it was -0.383.
Then U78A C88G C98U G135A, with -2.63; and G51A C73G C124U, with -1.14.
In the case of C80U G128C it was -3.33; in that of G60A C123G, 1.63; in that of C76U C104A, -1.92.
On to C85U A100U, for which the “polymerase ribozyme fitness (log ratio)” value was -1.79.
With G69U C79U, the “polymerase ribozyme fitness (log ratio)” value was -0.838.
Then G61A G110U U132A, with -0.611.
Take G10A A41U C53U U78G C89A A105U G120U: the “polymerase ribozyme fitness (log ratio)” value was -5.97.
Consider G47C C62G A118G, for which the “polymerase ribozyme fitness (log ratio)” value was -3.74.
Then C12U A18U, with -2.21; and C104U U106A, with -0.522.
As to C20U G77U, the “polymerase ribozyme fitness (log ratio)” value was -1.15.
Then C72G C123G, with 1.26.
In the case of G47U A105C U106A it was -1.48; in that of C49U A50C, -0.544; in that of A91C C114U G127A, -4.1.
As to C40A C49U, the “polymerase ribozyme fitness (log ratio)” value is -2.52.
On to C13G C40U C49A C64A A100C C115U, for which the “polymerase ribozyme fitness (log ratio)” value was -6.9.
For the variant C3G C97U, the “polymerase ribozyme fitness (log ratio)” value is -2.53.
Then G35A C72U C98A G117U, with -7.49; and C72U A108G, with -1.96.
With C56A C88U C124A U133C, the “polymerase ribozyme fitness (log ratio)” value was 2.43.
For the variant C8G C49G G71A U87A C124U, the “polymerase ribozyme fitness (log ratio)” value was determined as 0.992.
Regarding C15G G71A, the “polymerase ribozyme fitness (log ratio)” value is -2.92.
Take U9G C56G G61A: the “polymerase ribozyme fitness (log ratio)” value is -2.17.
For the variant A29G C49U A119U G120A C123A, the “polymerase ribozyme fitness (log ratio)” value was -2.51.
In the case of A2C U106A it was -1.44.
C56U U92C U106A: the “polymerase ribozyme fitness (log ratio)” value is -0.561.
Then C79A G110A, with -2.55.
With C31U G36A G61A U87A U106A, the “polymerase ribozyme fitness (log ratio)” value was -2.2.
In the case of A50U G61A it was -1.36; in that of G93U U96G, -1.89.
In the case of G35A G61C it was -5.94; in that of U54G U55A G93C C115G, -5.45.
For the variant C72G U78G G110U, the “polymerase ribozyme fitness (log ratio)” value was -2.55.
As to A43G G47C C64U C86G U125G G127C, the “polymerase ribozyme fitness (log ratio)” value is -3.04.
In the case of C73A C89A A118U it was -1.26; in that of C8U G61U, 0.435; in that of G36U C72G C124U, -0.0425.
For C20U C72U U78A A111G C123G G135C, the “polymerase ribozyme fitness (log ratio)” value is -3.01.
Then C31U C72A, with -4.11.
For C12U A37U C85U G93C G120A, the “polymerase ribozyme fitness (log ratio)” value amounted to 0.532.
Then G60C U130G, with -1.28; and C79G A84C C104A, with -4.75.
In the case of U9C G63A it was 0.19.
As for U14G G58A A95U G117C, the “polymerase ribozyme fitness (log ratio)” value was -5.13.
C4A A91U: the “polymerase ribozyme fitness (log ratio)” value is -3.65.
As for A5U C11G A29G G63A U87G, the “polymerase ribozyme fitness (log ratio)” value is -1.98.
In the case of A2C U54C G110A it was -3.04; in that of A6C U7G A29G G48C G61A A95C, -2.21; in that of G10A G63C, -0.414.
Then U112C C123A, with -0.0765.
In the case of A46U C49G C56U C76U U87A, the “polymerase ribozyme fitness (log ratio)” value was -1.97.
In the case of C3G A95G it was -2.02; in that of A27U A90U, -5.37; in that of C34U A50U C102U U109A C124U, -5.84.
Turning to G19A C62A U78A U81A C101G G113U U130A, the “polymerase ribozyme fitness (log ratio)” value is -6.38.
In the case of A108U C123A it was -5.15; in that of G48C G135U, -1.05; in that of C70U G113A U131A, -0.868.
As for G60U U78A U106A, the “polymerase ribozyme fitness (log ratio)” value is 0.283.
As for A2G G110U A118G, the “polymerase ribozyme fitness (log ratio)” value is -1.67.
Turning to A43G C80U, the “polymerase ribozyme fitness (log ratio)” value is -2.86.
In the case of C8A U59A it was -0.964.
Take G110C C115U: the “polymerase ribozyme fitness (log ratio)” value was -4.71.
Then G47U A90G, with -0.297; and C15U A83G, with -1.88; and C13U C72U, with -0.334.
On to G19C C62U C64U G120C, for which the “polymerase ribozyme fitness (log ratio)” value is -2.12.
Turning to A16G A75U C123U, the “polymerase ribozyme fitness (log ratio)” value is -0.477.
Then A18G C34A, with -5.57; and C49G G51U U54G, with -2.34; and U54G C62G, with -5.55.
Then C40U A43U C49A U55C G61C A84C G110C U131C, with -6.76.
In the case of G51C U87A G120A it was -3.27; in that of U7A G52A A111C, 0.419; in that of C31U G36U C73U C82A C86G G113U U133A, -6.04.
On to C11U G61U C76U A111C, for which the “polymerase ribozyme fitness (log ratio)” value was -5.8.
As to G10U U78C C88G, the “polymerase ribozyme fitness (log ratio)” value was -1.13.
Then G39U G52U C70U, with -2.08; and C15G G48A U78G C97U A111U, with -6.43.
Consider U7G U54A C102A U112A U131A, for which the “polymerase ribozyme fitness (log ratio)” value was -0.106.
Then G48U C70A, with -2.08; and C49G C56G U87A G117A, with -4.51; and A5C G51A C86G, with -4.05.
In the case of G48U C86A C115U G120C, the “polymerase ribozyme fitness (log ratio)” value was -2.47.
With G10U G71C, the “polymerase ribozyme fitness (log ratio)” value is -1.29.
Then C8A C20U G113U A118U, with -0.316.
In the case of C53A G120C it was 0.974; in that of A16U C20A C73G G117U A119U, -5.33.
C34A C53A C56A: the “polymerase ribozyme fitness (log ratio)” value was -2.66.
In the case of G42A A74U A119G, the “polymerase ribozyme fitness (log ratio)” value was -1.81.
Consider G60A A84U U87A G113U G122A, for which the “polymerase ribozyme fitness (log ratio)” value was -5.92.
Regarding C28G C53U U67G C73G C98A C102A A111U C114G, the “polymerase ribozyme fitness (log ratio)” value is -6.
In the case of C49A U78C it was -0.24; in that of G77A U81A G128A, -2.44; in that of C8G C11G C56A C104A, -1.39.
In the case of G17A C80U it was -3.53; in that of C12A A18U C76G G77U U96A, -4.3; in that of C3A C124A, -0.333.
Turning to C56A C62A C79A, the “polymerase ribozyme fitness (log ratio)” value was -6.19.
In the case of A66U C114A it was -3.05.
For the variant U112A G135A, the “polymerase ribozyme fitness (log ratio)” value was 2.15.
In the case of U9A U14A C64U it was 0.0854.
Then G10U A26U G39C C89U, with -5.19.
In the case of C62A U116G G120C U129A it was -3.57.
